Experimental data published in US9309278.

Target: T1, Ac-FQPKKS(Ac)G-NH2 (alkylated acetyl-lysine analog of peptide 1)
T1 chain: FQPKXG

B1: human sirtuin 2 (SIRT2) enzyme (protein)
chain: MAEPDPSHPLETQAGKVQEAQDSDSDSEGGAAGGEADMDFLRNLFSQTLSLGSQKERLLDELTLEGVARYMQSERCRRVICLVGAGISTSAGIPDFRSPSTGLYDNLEKYHLPYPEAIFEISYFKKHPEPFFALAKELYPGQFKPTICHYFMRLLKDKGLLLRCYTQNIDTLERIAGLEQEDLVEAHGTFYTSHCVSASCRHEYPLSWMKEKIFSEVTPKCEDCQSLVKPDIVFFGESLPARFFSCMQSDFLKVDLLLVMGTSLQVQPFASLISKAPLSTPRLLINKEKAGQSDPFLGMIMGLGGGMDFDSKKAYRDVAWLGECDQGCLALAELLGWKKELEDLVRREHASIDAQSGAGVPNPSTSASPKKSPPPAKDEARTTEREKPQ
With B1 the deacetylation rate (SIRT2 assay, C18 analytical HPLC) (fold of the rate on the native peptide) was 0.33 and the “enzymatic deacetylation (SIRT2 assay, HPLC peak of the deacetylated product)” value was “the sLys(Ac) residue in the alkylated peptide 1 was susceptible to enzymatic deacetylation, albeit to a lesser degree, compared to its native counterpart”.
